In data set [1] the test system is a variety of other commonly used cell lines. The data set is described as follows: Transfection of N79 rz vector into other cell lines. Particulars: after transfection. In kind it is cell-based. The text has this: (a) and (b) N79 functioned efficiently in a variety of cell types. Numbers are the measurements of β-gal expressed. (c) N79 functioned efficiently at some but not all positions within the vector. […] The ±signs indicate standard deviation from mean of at least four independent measurements.
In addition, the N79 rz was able to function efficiently when placed within other transcriptional units which made use of different promoters and a different reporter gene (eGFP) (FIG. 2b). As Applicants had observed in the primary screen of different rz motifs for activity in mammalian cells, N79 was able to function when placed in several, but not all locations of the pMD transcriptional unit, albeit at different efficiencies (FIG. 2c). Importantly, placement of two rz sequences in tandem, in some cases (e.g., E position) led to a dramatic suppression of reporter gene expression (FIG. 2c).

The subject of another data set is 293 cells. Kind of data set: Transient transfection LacZ reporter assay of ribozyme self-cleavage. In kind it is cell-based. Particulars: rz at position E of pMD vector. An excerpt:
The approach is critically dependent upon both the ability of a specific self-cleaving ribozyme (rz) to effect the highly efficient cleavage (>99%) of an mRNA molecule into which it is embedded, and the availability of a small molecule capable of efficiently inhibiting self-cleavage of the cis-acting rz within an intracellular milieu. A first step in our studies was to identify candidate rz sequences capable of efficient cleavage in mammalian cells in the context of an ‘expression’ vector. For this purpose, Applicantsmade use of a transient transfection assay involving a standard mammalian expression vector (Ory, et al., 1996, Proc Natl Acad Sci USA 93, 11400-6) which encodes a LacZ reporter (FIG. 1b). […] After transfection of 293 cells with these vectors, protein extracts were prepared from cells and the β-gal level quantified.
1.5 μl Fugene-6 (Roche, Basel, Switzerland) was diluted in 100 μl OPTIMEM (Gibco, Carlsbad, Calif.) and incubated for 5 minutes at room temperature. This solution was added dropwise to 0.45 μg plasmid DNA and incubated for 15 minutes. The plasmid DNA contains either a wildtype or a mutant ribozyme and a Lacz reporter gene. The DNA mixture was then added dropwise to 3×10^5 HEK 293 cells (plated the previous day in a 35 mm dish). Cells were harvested for β-galactosidase assay 24 hours following transfection.
Plasmids carrying different ribozymes were transfected into HEK293T cells and lysed 24 h later. The cell extracts were incubated with ONPG, and the amount of B-galactosidase in cell extracts was measured by quantifying the processed ONPG using a luminometer.
Cleaving activity was determined by comparing the level of −galactosidase measured in the test sample to a control comprising a point mutation (A-+G) at position 14 which attenuates ribozyme activity. Briefly, transfected HEK293 cells were lysed with a lysis solution and the extracts of cells were separated from cell debris. The extracts were then incubated with ONPG, a chromogenic substrate of β-galactosidase. […] The intensity of yellow light emission was measured with a luminometer (Miller J., Experiments in Molecular Genetics, Cold Spring Harbor Laboratory, Cold Spring Harbor, N.Y. (1972)).
(Reporter assays use an easily measured gene product as a stand-in for the process of interest.)

Data set [2] relates to self-cleavage of full length ribozymes. Kind of data set: Catalytic rate measurement of in vitro transcribed ribozymes. Conditions: 50 mM Tris-HCl pH7.5, 23° C. It is filed as biochemical. On the procedure:
Ribozymes were generated by in vitro transcription in the presence of 50 uM blocking antisense oligos. Full length ribozymes were purified and the cleavage rate determined in 50 mM Tris-HCI, pH7.5 at 23° C. Kobs was calculated according to the equation F1=F0+F∞(l−e^kt).

B1: N79: N73 ribozyme transferred to position E of the vector, SEQ ID NO: 5 (nucleic acid)
chain: CUGAGAUGCAGGUACAUCCAGCUGAUGAGUCCCAAAUAGGACGAAACGCGCUUCGGUGCGUCCUGGAUUCCACUGCUAUCCAC
As for B1, in data set [1], the B-gal expression result is reported as “dramatically reduced”. The “cleavage activity, fold difference between functional and inactive rz” value in the data set with 293 cells is reported as 225 fold. Moreover, the Kobs in data set [2] (0.5 mM Mg++) and in data set [2] (10 mM Mg++) was 0.84 ^−min each time.

The values are drawn from patent publication US10233447B2, “Self-cleaving ribozymes and uses thereof” (The Children s Medical Center Corporation, priority 2003, dated 2019).
